Paper PMC8058060, “The transcriptional activator of the bfp operon in EPEC (PerA) interacts with the RNA polymerase alpha subunit” (Scientific Reports, 2021)

Molecular target: T1, His6-RpoA (alpha subunit of the RNA polymerase) (UniProt P0A7Z4 1-329)
T1 construct: RNA polymerase alpha subunit RpoA; also called His-tagged RpoA; α-subunit of the RNAP; source: E. coli BL21 (DE3) containing pET28-RpoA, purified as described previously
Assay: pull-down; 50 µg each of purified MBP or MBP-PerA and His6-RpoA in interaction buffer (2X: 100 mM NaH2PO4, 600 mM NaCl, 40 mM imidazol, 0.5% NP-40, 20% glycerol, pH 8.0), 30 min on ice, then 50 µl amylose resin 2 h at ~4 °C; Western blot with anti-MBP antibody or anti-His6-HRP probe
Conditions: both partners purified

T1 sequence (P0A7Z4 whole entry): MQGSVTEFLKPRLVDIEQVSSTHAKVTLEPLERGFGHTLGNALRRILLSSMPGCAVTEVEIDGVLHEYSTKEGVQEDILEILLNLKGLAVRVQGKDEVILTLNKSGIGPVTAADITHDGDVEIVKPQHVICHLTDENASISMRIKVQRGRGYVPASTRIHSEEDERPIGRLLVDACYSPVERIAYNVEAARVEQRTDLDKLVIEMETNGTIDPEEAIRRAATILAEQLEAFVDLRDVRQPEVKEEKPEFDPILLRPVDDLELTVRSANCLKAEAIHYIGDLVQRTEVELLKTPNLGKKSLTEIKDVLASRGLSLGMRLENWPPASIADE

B1: MBP-PerA fusion (natural protein)
chain: MLTSKKEMQSSENKQEENLALLLTNYISYQNIVIFTGGNQFKIRNKKEFTEYTIESNSLFFLAKNTHWDMEIVGIDNSNPYRKIIIDDALIKLLHSISSDDSCYVKKKIFTANLNEMQLNIVSNIITDIKYSGNNKKIFKILYLLSFFNDYNDIVNVILSASSKSIVDRVIKVIELDISKNWKLGDVSSSMFMSDSCLRKQLNKENLTFKKIMLDIKMKHASLFLRTTDKNIDEISCLVGFNSTSYFIKVFKEYYNTTPKKYNGVYSITQGTLP
notes: 274 residues; pMalC2xa derivative; also called BfpT; MBP-PerA chimera; source: expressed from pMALT2; over-expressed in EPEC E2348/69 ΔperA with 0.3 mM IPTG, in soluble lysate, for the co-purification
  binding result: binds
